Source: the supplement of paper PMC11246515
± gives the standard deviation of the averaged measurements.

Assay: total protein half-life in vivo (active degradation + dilution); higher = more stable protein
[1] = E. coli NCM3722 delta-clpP delta-lon delta-hslV, growth: N-lim chemostat, doubling time 6 h
[2] = E. coli NCM3722 delta-clpP, growth: N-lim chemostat, doubling time 6 h
[3] = E. coli NCM3722 delta-hslV, growth: N-lim chemostat, doubling time 6 h
[4] = E. coli NCM3722 delta-lon, growth: N-lim chemostat, doubling time 6 h
[5] = E. coli NCM3722 delta-smpB, growth: N-lim chemostat, doubling time 6 h
[6] = wild type E. coli NCM3722, growth: C-lim chemostat, doubling time 3 h
[7] = wild type E. coli NCM3722, growth: C-lim chemostat, doubling time 6 h
[8] = wild type E. coli NCM3722, growth: C-lim chemostat, doubling time 12 h
[9] = wild type E. coli NCM3722, growth: N-lim chemostat, doubling time 6 h
[10] = wild type E. coli NCM3722, growth: N-lim chemostat, doubling time 12 h
[11] = wild type E. coli NCM3722, growth: P-lim chemostat, doubling time 6 h
[12] = wild type E. coli NCM3722, growth: P-lim chemostat, doubling time 12 h

| Sequence | total protein half-life in vivo [1] [h] | total protein half-life in vivo [2] [h] | total protein half-life in vivo [3] [h] | total protein half-life in vivo [4] [h] | total protein half-life in vivo [5] [h] | total protein half-life in vivo [6] [h] | total protein half-life in vivo [7] [h] | total protein half-life in vivo [8] [h] | total protein half-life in vivo [9] [h] | total protein half-life in vivo [10] [h] | total protein half-life in vivo [11] [h] | total protein half-life in vivo [12] [h] |
| --- | --- | --- | --- | --- | --- | --- | --- | --- | --- | --- | --- | --- |
| MTHKATEILTGKVMQKSVLITGCSSGIGLESALELKRQGFHVLAGCRKPDDVERMNSMGFTGVLIDLDSPESVDRAADEVIALTDNCLYGIFNNAGFGMYGPLSTISRAQMEQQFSANFFGAHQLTMRLLPAMLPHGEGRIVMTSSVMGLISTPGRGAYAASKYALEAWSDALRMELRHSGIKVSLIEPGPIRTRFTDNVNQTQSDKPVENPGIAARFTLGPEAVVDKVRHAFISEKPKMRYPVTLVTWAVMVLKRLLPGRVMDKILQG [P0AFP4] | 6.09 ± 0.25 | 6.01 ± 0.54 | 5.32 ± 1.6 | 6.02 ± 0.67 | 5.568 ± 0.03 | 3.07 ± 0.11 | 6.19 ± 0.11 | 13.6 ± 1.8 | 6.01 ± 0.4 | 11.9 ± 0.34 | 6.027 ± 0.025 | 10.4 ± 1.3 |
| MKPLLDVLMILDALEKEGSFAAASAKLYKTPSALSYTVHKLESDLNIQLLDRSGHRAKFTRTGKMLLEKGREVLHTVRELEKQAIKLHEGWENELVIGVDDTFPFSLLAPLIEAFYQHHSVTRLKFINGVLGGSWDALTQGRADIIVGAMHEPPSSSEFGFSRLGDLEQVFAVAPHHPLALEEEPLNRRIIKRYRAIVVGDTAQAGASTASQLLDEQEAITVFDFKTKLELQISGLGCGYLPRYLAQRFLDSGALIEKKVVAQTLFEPVWIGWNEQTAGLASGWWRDEILANSAIAGVYAKSDDGKSAI | 5.91 ± 0.24 | – | – | – | – | – | – | – | – | – | – | – |
| MSNLSPDFVLPENFCANPQEAWTIPARFYTDQNAFEHEKENVFAKSWICVAHSSELANANDYVTREIIGESIVLVRGRDKVLRAFYNVCPHRGHQLLSGEGKAKNVITCPYHAWAFKLDGNLAHARNCENVANFDSDKAQLVPVRLEEYAGFVFINMDPNATSVEDQLPGLGAKVLEACPEVHDLKLAARFTTRTPANWKNIVDNYLECYHCGPAHPGFSDSVQVDRYWHTMHGNWTLQYGFAKPSEQSFKFEEGTDAAFHGFWLWPCTMLNVTPIKGMMTVIYEFPVDSETTLQNYDIYFTNEELTDEQKSLIEWYRDVFRPEDLRLVESVQKGLKSRGYRGQGRIMADSSGSGISEHGIAHFHNLLAQVFKD [P0ABR7] | – | – | – | – | – | 0.182 | – | – | – | – | – | – |
| MTVSSHRLELLSPARDAAIAREAILHGADAVYIGGPGFGARHNASNSLKDIAELVPFAHRYGAKIFVTLNTILHDDELEPAQRLITDLYQTGVDALIVQDMGILELDIPPIELHASTQCDIRTVEKAKFLSDVGFTQIVLARELNLDQIRAIHQATDATIEFFIHGALCVAYSGQCYISHAQTGRSANRGDCSQACRLPYTLKDDQGRVVSYEKHLLSMKDNDQTANLGALIDAGVRSFKIEGRYKDMSYVKNITAHYRQMLDAIIEERGDLARASSGRTEHFFVPSTEKTFHRGSTDYFVNARKGDIGAFDSPKFIGLPVGEVVKVAKDHLDVAVTEPLANGDGLNVLIKREVVGFRANTVEKTGENQYRVWPNEMPADLHKIRPHHPLNRNLDHNWQQALTKTSSERRVAVDIELGGWQEQLILTLTSEEGVSITHTLDGQFDEANNAEKAMNNLKDGLAKLGQTLYYARDVQINLPGALFVPNSLLNQFRREAADMLDAARLASYQRGSRKPVADPAPVYPQTHLSFLANVYNQKAREFYHRYGVQLIDAAYEAHEEKGEVPVMITKHCLRFAFNLCPKQAKGNIKSWKATPMQLVNGDEVLTLKFDCRPCEMHVIGKIKNHILKMPLPGSVVASVSPDELLKTLPKRKG | 4.77 ± 0.49 | 0.895 | 1.82 ± 0.064 | 2.74 ± 0.24 | 1.75 ± 0.024 | 1.911 ± 0.011 | 2.78 ± 0.12 | 3.03 ± 0.49 | 2.12 ± 0.058 | 2.47 ± 0.12 | 2.13 ± 0.32 | 3.17 ± 0.38 |
| MARINRISITLCALLFTTLPLTPMAHASKQARESSATTHITKKADKKKSTATTKKTQKTAKKAASKSTTKSKTASSVKKSSITASKNAKTRSKHAVNKTASASFTEKCTKRKGYKSHCVKVKNAASGTLADAHKAKVQKATKVAMNKLMQQIGKPYRWGGSSPRTGFDCSGLVYYAYKDLVKIRIPRTANEMYHLRDAAPIERSELKNGDLVFFRTQGRGTADHVGVYVGNGKFIQSPRTGQEIQITSLSEDYWQRHYVGARRVMTPKTLR | > 8 | – | 3.67 | 2.15 | – | 2.57 ± 0.19 | 5.435 ± 0.027 | 9.36 ± 4.5 | 2.63 ± 0.55 | 6.47 ± 1.8 | 3.69 ± 0.066 | 6.68 ± 0.86 |
| MNIRDLEYLVALAEHRHFRRAADSCHVSQPTLSGQIRKLEDELGVMLLERTSRKVLFTQAGMLLVDQARTVLREVKVLKEMASQQGETMSGPLHIGLIPTVGPYLLPHIIPMLHQTFPKLEMYLHEAQTHQLLAQLDSGKLDCVILALVKESEAFIEVPLFDEPMLLAIYEDHPWANRECVPMADLAGEKLLMLEDGHCLRDQAMGFCFEAGADEDTHFRATSLETLRNMVAAGSGITLLPALAVPPERKRDGVVYLPCIKPEPRRTIGLVYRPGSPLRSRYEQLAEAIRARMDGHFDKVLKQAV [P0ACQ4] | 6.42 ± 0.14 | 6.57 ± 1.4 | 4.79 ± 0.37 | 4.56 ± 0.12 | 4.11 ± 0.24 | 2.62 ± 0.37 | 5.1 ± 0.76 | 9.67 ± 2.1 | 4.51 ± 0.26 | 10.4 ± 2.9 | 4.768 ± 0.012 | 9.98 ± 0.13 |
| MNYSHDNWSAILAHIGKPEELDTSARNAGALTRRREIRDAATLLRLGLAYGPGGMSLREVTAWAQLHDVATLSDVALLKRLRNAADWFGILAAQTLAVRAAVTGCTSGKRLRLVDGTAISAPGGGSAEWRLHMGYDPHTCQFTDFELTDSRDAERLDRFAQTADEIRIADRGFGSRPECIRSLAFGEADYIVRVHWRGLRWLTAEGMRFDMMGFLRGLDCGKNGETTVMIGNSGNKKAGAPFPARLIAVSLPPEKALISKTRLLSENRRKGRVVQAETLEAAGHVLLLTSLPEDEYSAEQVADCYRLRWQIELAFKRLKSLLHLDALRAKEPELAKAWIFANLLAAFLIDDIIQPSLDFPPRSAGSEKKN [P0CF93] | 5.49 ± 0.06 | 0.94 | 1.34 ± 0.12 | 1.85 ± 0.024 | 0.81 | 0.861 ± 0.23 | 1.69 ± 0.64 | 2.64 ± 0.44 | 1.62 ± 0.41 | 2.3 ± 0.26 | 0.485 | 11.9 |
| MTQKIEQSQRQERVAAWNRRAECDLAAFQNSPKQTYQAEKARDRKLCANLEEAIRRSGLQDGMTVSFHHAFRGGDLTVNMVMDVIAKMGFKNLTLASSSLSDCHAPLVEHIRQGVVTRIYTSGLRGPLAEEISRGLLAEPVQIHSHGGRVHLVQSGELNIDVAFLGVPSCDEFGNANGYTGKACCGSLGYAIVDADNAKQVVMLTEELLPYPHNPASIEQDQVDLIVKVDRVGDAAKIGAGATRMTTNPRELLIARSAADVIVNSGYFKEGFSMQTGTGGASLAVTRFLEDKMRSRDIRADFALGGITATMVDLHEKGLIRKLLDVQSFDSHAAQSLARNPNHIEISANQYANWGSKGASVDRLDVVVLSALEIDTQFNVNVLTGSDGVLRGASGGHCDTAIASALSIIVAPLVRGRIPTLVDNVLTCITPGSSVDILVTDHGIAVNPARPELAERLQEAGIKVVSIEWLRERARLLTGEPQPIEFTDRVVAVVRYRDGSVIDVVHQVKE | – | – | – | – | – | – | – | > 16 | – | – | – | – |
